To fix the notation:
B1: Protein E6 (Human papillomavirus type 16), P03126 (parent)
chain: MHQKRTAMFQDPQERPRKLPQLCTELQTTIHDIILECVYCKQQLLRREVYDFAFRDLCIVYRDGNPYAVCDKCLKFYSKISEYRHYCYSLYGTTLEQQYNKPLCDLLIRCINCQKPLCPEEKQRHLDKKQRFHNIRGRWTGRCMSCCRSSRTRRETQL

Variants of B1 are the subject of the first assay. Conditions: with ep300_human EP300, Q09472.
Sequence of ep300_human EP300, Q09472 (Q09472 whole entry): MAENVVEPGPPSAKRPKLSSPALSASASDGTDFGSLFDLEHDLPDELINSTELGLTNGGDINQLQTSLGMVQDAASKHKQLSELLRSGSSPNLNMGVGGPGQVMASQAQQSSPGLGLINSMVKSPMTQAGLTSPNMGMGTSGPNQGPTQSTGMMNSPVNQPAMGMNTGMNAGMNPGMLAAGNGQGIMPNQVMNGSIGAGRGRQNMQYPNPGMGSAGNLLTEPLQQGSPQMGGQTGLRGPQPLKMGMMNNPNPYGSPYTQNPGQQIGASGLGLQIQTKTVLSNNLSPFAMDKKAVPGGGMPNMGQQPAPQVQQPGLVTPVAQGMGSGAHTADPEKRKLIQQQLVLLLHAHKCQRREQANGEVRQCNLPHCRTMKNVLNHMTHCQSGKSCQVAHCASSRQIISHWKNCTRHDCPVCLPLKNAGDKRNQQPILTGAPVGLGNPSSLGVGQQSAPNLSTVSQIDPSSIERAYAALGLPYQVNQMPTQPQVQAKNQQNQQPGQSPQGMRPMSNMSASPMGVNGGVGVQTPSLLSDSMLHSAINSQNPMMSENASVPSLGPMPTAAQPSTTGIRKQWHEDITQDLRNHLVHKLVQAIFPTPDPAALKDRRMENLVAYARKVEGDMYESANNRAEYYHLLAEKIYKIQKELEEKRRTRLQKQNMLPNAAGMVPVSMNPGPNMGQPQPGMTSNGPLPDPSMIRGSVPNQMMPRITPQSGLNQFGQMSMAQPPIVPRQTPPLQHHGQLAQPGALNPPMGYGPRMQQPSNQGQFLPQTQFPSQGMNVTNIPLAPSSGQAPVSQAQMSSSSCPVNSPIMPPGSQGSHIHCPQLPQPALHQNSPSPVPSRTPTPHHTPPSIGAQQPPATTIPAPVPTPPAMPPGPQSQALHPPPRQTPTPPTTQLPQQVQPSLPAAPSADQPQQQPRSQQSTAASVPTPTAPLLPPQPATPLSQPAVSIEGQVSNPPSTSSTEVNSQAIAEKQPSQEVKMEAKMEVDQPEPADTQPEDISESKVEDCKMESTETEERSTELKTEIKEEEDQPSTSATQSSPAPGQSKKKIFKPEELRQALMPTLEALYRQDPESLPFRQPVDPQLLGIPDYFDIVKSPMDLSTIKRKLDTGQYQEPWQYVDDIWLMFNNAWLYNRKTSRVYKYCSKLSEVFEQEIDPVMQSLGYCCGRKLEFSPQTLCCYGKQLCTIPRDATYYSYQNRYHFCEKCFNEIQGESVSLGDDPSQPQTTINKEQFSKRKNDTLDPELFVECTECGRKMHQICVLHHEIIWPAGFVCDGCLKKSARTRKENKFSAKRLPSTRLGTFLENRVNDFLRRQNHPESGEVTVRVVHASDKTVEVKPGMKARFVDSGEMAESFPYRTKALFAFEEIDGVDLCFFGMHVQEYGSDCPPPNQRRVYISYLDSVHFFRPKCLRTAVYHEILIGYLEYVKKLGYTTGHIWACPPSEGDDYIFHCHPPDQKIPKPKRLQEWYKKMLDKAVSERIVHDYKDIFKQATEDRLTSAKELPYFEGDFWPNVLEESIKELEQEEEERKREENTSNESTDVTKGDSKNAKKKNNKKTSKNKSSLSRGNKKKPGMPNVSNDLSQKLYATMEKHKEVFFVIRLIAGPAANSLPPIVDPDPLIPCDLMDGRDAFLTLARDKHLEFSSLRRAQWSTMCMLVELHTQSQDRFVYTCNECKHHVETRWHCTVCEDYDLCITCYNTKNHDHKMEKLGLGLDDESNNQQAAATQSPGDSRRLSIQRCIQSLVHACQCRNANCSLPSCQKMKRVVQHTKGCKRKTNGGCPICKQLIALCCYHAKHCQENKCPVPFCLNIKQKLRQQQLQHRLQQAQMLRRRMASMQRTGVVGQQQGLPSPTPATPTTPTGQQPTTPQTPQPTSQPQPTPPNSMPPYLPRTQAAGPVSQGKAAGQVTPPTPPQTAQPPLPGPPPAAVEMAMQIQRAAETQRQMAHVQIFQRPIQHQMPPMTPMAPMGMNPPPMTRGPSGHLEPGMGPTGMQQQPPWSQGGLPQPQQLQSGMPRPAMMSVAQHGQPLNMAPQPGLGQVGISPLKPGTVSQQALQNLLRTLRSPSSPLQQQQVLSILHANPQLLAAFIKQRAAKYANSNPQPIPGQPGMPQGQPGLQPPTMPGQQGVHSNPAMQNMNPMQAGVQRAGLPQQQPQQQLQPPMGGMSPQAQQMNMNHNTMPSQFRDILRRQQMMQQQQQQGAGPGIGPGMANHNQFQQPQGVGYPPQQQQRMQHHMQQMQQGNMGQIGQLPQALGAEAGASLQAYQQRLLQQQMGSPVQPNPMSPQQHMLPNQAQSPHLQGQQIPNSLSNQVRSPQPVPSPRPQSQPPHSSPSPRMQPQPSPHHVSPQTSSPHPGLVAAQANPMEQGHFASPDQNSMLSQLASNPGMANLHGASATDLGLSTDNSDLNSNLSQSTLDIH
With MHQKRTAMFQDPQERPRKLPQLCTELQTTIHDIILECVYCKQQLLRREVYDYAYRHLCIVYRDGNPYAVCDKCLKFYSKISEYRHYCYSLYGTTLEQQYNKPLCDLLIRCINCQKPLCPEEKQRHLDKKQRFHNIRGRWTGRCMSCCRSSRTRRETQL [F52Y;F54Y;D56H], the “effect of a mutation on the interaction” value is reported as “disrupting interaction”.

The variants in a further assay derive from B1. Conditions: with ep300_human EP300, Q09472. The source holds these as a separate data set.
For MHQKRTAMFQDPQERPRKLPQLCTELQTTIHDIILECVYCKQQLLRREVYDYAYRHLCIVYRDGNPYAVCDKCLKFYSKISEYRHYCYSLYGTTLEQQYNKPLCDLLIRCINCQKPLCPEEKQRHLDKKQRFHNIRGRWTGRCMSCCRSSRTRRETQL [F52Y;F54Y;D56H], the “effect of a mutation on the interaction” value was “decreasing interaction”.

As for MHQKRTAMFQDPQESATKLPQLCTELQTTIHDIILECVYCKQQLLRREVYDFAFRDLCIVYRDGNPYAVCDKCLKFYSKISEYRHYCYSLYGTTLEQQYNKPLCDLLIRCINCQKPLCPEEKQRHLDKKQRFHNIRGRWTGRCMSCCRSSRTRRETQL [R15S;P16A;R17T], the “effect of a mutation on the interaction” value was “decreasing interaction”. On the same count and under the same terms, then MHQKRTAMFQDPQERPRKLPQLCTELQTTIHDIILECVYCKQQLLRREVYDFAFRDLCIVYRDGNPYAVCDKGLKFYSKISEYRHYCYSLYGTTLEQQYNKPLCDLLIRCINCQKPLCPEEKQRHLDKKQRFHNIRGRWTGRGMSCCRSSRTRRETQL [C73G;C143G], with “disrupting interaction”.

Source of the values: IntAct's records for PubMed 10487758.
